We go through 1 substance from PMC10848957.

The target in the assay is FakA_M, central zinc finger domain of Streptococcus suis FakA (Streptococcus suis serotype 2, strain 05ZYH33). Nature of the assay: cross-linking.

In general, stoichiometry N refers to the number of molecules, sites or subunits per partner or assembly. The substance “FakA_M, central zinc finger domain of Streptococcus suis FakA (domain or fragment)” showed a stoichiometry N of 2.
